Data on three molecules can be found in patent US20230174630A1 (UNIVERSITY OF BRITISH COLUMBIA, published 2023).

The assay concerns the target T1, endogenous wild type TDP-43 of HEK293 cells (human, UniProt Q13148 1-414).
T1 construct: whole, on cells; Intracellular endogenous protein: nuclear in unstressed cells; also called endogenous, nuclear WT TDP-43; normal nuclear TDP-43
The assay is described as follows: co-localization immunocytochemistry, intrabody expressed in HEK293 cells.

T1 sequence (Q13148 whole entry): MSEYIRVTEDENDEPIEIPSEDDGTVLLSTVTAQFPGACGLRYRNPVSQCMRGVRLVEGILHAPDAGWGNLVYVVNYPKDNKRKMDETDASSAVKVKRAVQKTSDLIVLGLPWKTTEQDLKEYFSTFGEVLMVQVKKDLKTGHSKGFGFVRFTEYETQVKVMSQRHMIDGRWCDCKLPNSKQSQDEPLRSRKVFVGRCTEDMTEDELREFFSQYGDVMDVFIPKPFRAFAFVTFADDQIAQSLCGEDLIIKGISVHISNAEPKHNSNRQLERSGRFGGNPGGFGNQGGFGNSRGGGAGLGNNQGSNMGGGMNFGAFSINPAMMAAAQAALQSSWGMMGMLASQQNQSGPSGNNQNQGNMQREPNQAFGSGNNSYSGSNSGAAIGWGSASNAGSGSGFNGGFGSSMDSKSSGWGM

B1: YPTL-2F7 (scFv)
scFv: MDVKLVESGGGLVKLGGSLKLSCAASGFTFSSYYMSWVRQTPEKRLELVATINSNGGSTYYPDTVKGRITISRDNAKNTLQLQMSSLRSEDTALYYCVRQNYEGAYWGQGTLVTVSAGGGGSGGGGSGGGGSDVLMTQTPLSLPVTLGDQASISCRSSQSIVHSNGNTYLEWYLQKPGQSPKLLIYKVSNRFSGVPDRFSGSGSGTDFTLKISRVEAEDLGVYYCFQSSHVPWTFGGGTKLEIKDYKDDDDKRWRKSHSSSYTPLSGSTYPEGRH
Regarding B1, the binding result is “no binding”.

B2: YPTL-14H1-14K2 (scFv)
scFv: MQEQLEESGGDLVKPEGSLTLTCTASGFSFSSNYVMCWVRQAPGKGLEWVACIWFAGIVDTTYYATWAKGRFTISKTSSTTVTLQMTSLTAADTATYFCARNPVGSVNLWGQGTLVTVSSGGGGSGGGGSGGGGSVMTQTPSSKSVPVGGSVTINCQASESVYSNNRLSWYQQKPGQPPKLLIYYASTLESGVPSRFKGSGFGTHFTLTISGAQCDDAATYYCAGWRGARTDGVDFGGGTEVVVKDYKDDDDKRWRKSHSSSYTPLSGSTYPEGRH
As to B2, the binding result is “no binding”.

B3: MYCL20H-14H1-14K2 (scFv)
scFv: MAIVMTQTPSSKSVPVGGSVTINCQASESVYSNNRLSWYQQKPGQPPKLLIYYASTLESGVPSRFKGSGFGTHFTLTISGAQCDDAATYYCAGWRGARTDGVDFGGGTEVVVKGSTGGGGSGKPGSGEGGGGSQEQLEESGGDLVKPEGSLTLTCTASGFSFSSNYVMCWVRQAPGKGLEWVACIWFAGIVDTTYYATWAKGRFTISKTSSTTVTLQMTSLTAADTATYFCARNPVGSVNLWGQGTLVTVSSGSGEQKLISEEDL
notes: Intrabody: VL-20 aa linker-VH-GSG-MYC tag
For B3, the binding result is listed as “no binding”.
